Test results: patent US12630632B2, “Bispecific HER2 and CD3 binding molecules” (Memorial Sloan Kettering Cancer Center, priority 2017, dated 2026)

System: naïve T cells
Test: T cell proliferation (WST-8)
Format: cell-based, human
Settings: 67 nM antibody, 6 days
Experimental: For T cell proliferation, naïve T cells were purified from human PBMC using Pan T cell isolation kit (Miltenyi Biotec). 2×10^5 purified T cells were mixed with different antibodies in 96-well cell culture plate to a final volume of 250 μl/well. T cells were cultured and maintained in RPMI-1640 supplemented with 10% FBS in 37° C. for 6 days. T cell proliferation was quantitated using the WST-8 kit as described above.

B1: huOKT3 Fab: monovalent Fab prepared from huOKT3 IgG1 (antibody, V domains shown)
VH: QVQLVQSGGGVVQPGRSLRLSCKASGYTFTRYTMHWVRQAPGKGLEWIGYINPSRGYTNYNQKFKDRFTISRDNSKNTAFLQMDSLRPEDTGVYFCARYYDDHYCLDYWGQGTPVTVSS
VL: DIQMTQSPSSLSASVGDRVTITCSASSSVSYMNWYQQTPGKAPKRWIYDTSKLASGVPSRFSGSGSGTDYTFTISSLQPEDIATYYCQQWSSNPFTFGQGTKLQITR
T cell proliferation in the absence of tumor targets: negligible effects
